Key:
[1] = target: Construct 1 (chimeric human NaPi2b, swap in NaPi2c in 239-259) (human); assay: flow cytometry, transfected HEK293-6e cells, antibody 5 nM (footnote b)
[2] = target: Construct 2 (chimeric human NaPi2b, swap in NaPi2c in 280-301) (human); assay: as above
[3] = target: Construct 3 (chimeric human NaPi2b, swap in NaPi2c in 304-321) (human); assay: as above
[4] = target: Construct 4 (chimeric human NaPi2b, swap in NaPi2c in 341-358) (human); assay: as above
[5] = target: Construct 5 (chimeric human NaPi2b, swap in NaPi2a in 304-348) (human); assay: as above
Sequence of Construct 5 (chimeric human NaPi2b, swap in NaPi2a in 304-348) (human) (O95436 other isoform, or with tags, fused parts or gaps mutant): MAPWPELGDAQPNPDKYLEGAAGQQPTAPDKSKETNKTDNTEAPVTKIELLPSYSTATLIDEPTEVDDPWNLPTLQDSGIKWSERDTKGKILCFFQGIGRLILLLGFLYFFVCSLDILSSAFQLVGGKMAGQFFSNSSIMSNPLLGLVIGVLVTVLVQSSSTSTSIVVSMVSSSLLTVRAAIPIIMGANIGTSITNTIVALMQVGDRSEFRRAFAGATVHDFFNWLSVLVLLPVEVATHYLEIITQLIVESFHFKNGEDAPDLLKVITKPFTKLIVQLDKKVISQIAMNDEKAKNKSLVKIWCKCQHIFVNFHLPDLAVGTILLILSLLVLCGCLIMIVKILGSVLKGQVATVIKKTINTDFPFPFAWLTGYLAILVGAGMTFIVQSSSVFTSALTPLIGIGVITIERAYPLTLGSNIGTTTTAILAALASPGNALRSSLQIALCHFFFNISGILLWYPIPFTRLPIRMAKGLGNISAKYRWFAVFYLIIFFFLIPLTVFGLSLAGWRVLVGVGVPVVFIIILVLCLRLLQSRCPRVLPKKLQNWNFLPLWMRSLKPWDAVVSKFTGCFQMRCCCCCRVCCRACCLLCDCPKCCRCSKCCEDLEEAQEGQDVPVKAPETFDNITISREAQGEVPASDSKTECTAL

[6] = target: Construct 6 (human NaPi2b del 317-333) (human) (UniProt O95436); assay: as above
Sequence of Construct 6 (human NaPi2b del 317-333) (human) (O95436 other isoform, or with tags, fused parts or gaps): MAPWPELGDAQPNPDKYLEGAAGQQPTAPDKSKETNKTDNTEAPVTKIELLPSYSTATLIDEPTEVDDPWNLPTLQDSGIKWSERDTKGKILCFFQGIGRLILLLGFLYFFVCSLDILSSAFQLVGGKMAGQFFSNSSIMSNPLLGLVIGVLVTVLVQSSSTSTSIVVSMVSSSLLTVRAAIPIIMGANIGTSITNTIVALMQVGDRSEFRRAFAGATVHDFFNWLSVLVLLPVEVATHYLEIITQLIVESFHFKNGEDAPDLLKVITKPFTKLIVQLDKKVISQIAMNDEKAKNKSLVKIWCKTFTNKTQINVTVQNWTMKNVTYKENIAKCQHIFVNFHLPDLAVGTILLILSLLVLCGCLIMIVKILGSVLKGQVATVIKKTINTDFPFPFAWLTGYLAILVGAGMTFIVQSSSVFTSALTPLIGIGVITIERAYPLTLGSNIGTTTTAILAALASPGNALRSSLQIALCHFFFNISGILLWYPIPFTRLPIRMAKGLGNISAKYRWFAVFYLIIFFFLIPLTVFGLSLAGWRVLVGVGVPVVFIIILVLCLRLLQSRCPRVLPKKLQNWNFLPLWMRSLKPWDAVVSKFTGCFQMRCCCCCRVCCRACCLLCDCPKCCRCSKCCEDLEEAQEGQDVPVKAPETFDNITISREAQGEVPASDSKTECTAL

[7] = target: Construct 7 (human NaPi2b del 317-326) (human) (UniProt O95436); assay: as above
Sequence of Construct 7 (human NaPi2b del 317-326) (human) (O95436 other isoform, or with tags, fused parts or gaps): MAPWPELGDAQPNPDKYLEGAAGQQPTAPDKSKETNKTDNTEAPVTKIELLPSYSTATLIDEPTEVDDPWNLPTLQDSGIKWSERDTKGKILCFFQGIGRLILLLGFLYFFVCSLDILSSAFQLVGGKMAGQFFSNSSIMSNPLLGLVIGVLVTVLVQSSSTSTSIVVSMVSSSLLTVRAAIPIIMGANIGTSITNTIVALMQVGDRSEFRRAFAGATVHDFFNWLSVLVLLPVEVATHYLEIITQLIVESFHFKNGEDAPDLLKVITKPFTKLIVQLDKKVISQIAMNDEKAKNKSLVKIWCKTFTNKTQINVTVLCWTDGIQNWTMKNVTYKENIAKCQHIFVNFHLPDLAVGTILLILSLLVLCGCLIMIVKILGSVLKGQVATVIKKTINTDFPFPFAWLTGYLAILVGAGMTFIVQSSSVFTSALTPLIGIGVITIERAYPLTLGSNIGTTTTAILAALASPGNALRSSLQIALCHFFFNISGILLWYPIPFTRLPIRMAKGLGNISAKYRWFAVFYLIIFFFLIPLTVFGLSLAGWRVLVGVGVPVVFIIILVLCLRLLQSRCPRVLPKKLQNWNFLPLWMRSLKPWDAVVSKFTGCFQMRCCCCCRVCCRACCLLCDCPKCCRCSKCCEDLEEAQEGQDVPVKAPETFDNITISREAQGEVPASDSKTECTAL

[8] = target: Full length human NaPi2b (sodium-dependent phosphate transporter 2B, SLC34A2) (human) (UniProt O95436); assay: as above
[9] = target: Construct 1 (chimeric human NaPi2b, swap in NaPi2c in 239-259) (human); assay: flow cytometry, transfected HEK293-6e cells, antibody 50 nM (footnote b)
[10] = target: Construct 2 (chimeric human NaPi2b, swap in NaPi2c in 280-301) (human); assay: as above
[11] = target: Construct 3 (chimeric human NaPi2b, swap in NaPi2c in 304-321) (human); assay: as above
[12] = target: Construct 4 (chimeric human NaPi2b, swap in NaPi2c in 341-358) (human); assay: as above
[13] = target: Construct 5 (chimeric human NaPi2b, swap in NaPi2a in 304-348) (human); assay: as above
[14] = target: Construct 6 (human NaPi2b del 317-333) (human) (UniProt O95436); assay: as above
[15] = target: Construct 7 (human NaPi2b del 317-326) (human) (UniProt O95436); assay: as above
[16] = target: Full length human NaPi2b (sodium-dependent phosphate transporter 2B, SLC34A2) (human) (UniProt O95436); assay: as above
[17] = target: Construct 1 (chimeric human NaPi2b, swap in NaPi2c in 239-259) (human); assay: flow cytometry, transfected HEK293-6e cells, antibody 0.5 nM (footnote b)
[18] = target: Construct 2 (chimeric human NaPi2b, swap in NaPi2c in 280-301) (human); assay: as above
[19] = target: Construct 3 (chimeric human NaPi2b, swap in NaPi2c in 304-321) (human); assay: as above
[20] = target: Construct 4 (chimeric human NaPi2b, swap in NaPi2c in 341-358) (human); assay: as above
[21] = target: Construct 5 (chimeric human NaPi2b, swap in NaPi2a in 304-348) (human); assay: as above
[22] = target: Construct 6 (human NaPi2b del 317-333) (human) (UniProt O95436); assay: as above
[23] = target: Construct 7 (human NaPi2b del 317-326) (human) (UniProt O95436); assay: as above
[24] = target: Full length human NaPi2b (sodium-dependent phosphate transporter 2B, SLC34A2) (human) (UniProt O95436); assay: as above
[25] = target: Fcγ receptor (FcγR) on the surface of immune effector cells; assay: cell-based or functional assay
[26] = target: human sodium-dependent phosphate transporter 2B (NaPi2b) (human) (UniProt O95436); assay: competition flow cytometry, human NaPi2b on HEK293-6e; row antibody unlabeled 100 ug/mL; competitor: labeled v23855 1 ug/mL
[27] = target: human sodium-dependent phosphate transporter 2B (NaPi2b) (human) (UniProt O95436); assay: competition flow cytometry, human NaPi2b on HEK293-6e; row antibody unlabeled 100 ug/mL; competitor: labeled v18992 (MX35) 1 ug/mL
[28] = target: human sodium-dependent phosphate transporter 2B (NaPi2b) (human) (UniProt O95436); assay: competition flow cytometry, human NaPi2b on HEK293-6e; row antibody unlabeled 100 ug/mL; competitor: labeled v18993 (lifastuzumab) 1 ug/mL
[29] = target: human sodium-dependent phosphate transporter 2B (NaPi2b) (human) (UniProt O95436); assay: competition flow cytometry, human NaPi2b on HEK293-6e; row antibody unlabeled 100 ug/mL; competitor: labeled v16955 (negative control) 1 ug/mL

Sequence of Construct 2 (chimeric human NaPi2b, swap in NaPi2c in 280-301) (human) (O95436 other isoform, or with tags, fused parts or gaps mutant): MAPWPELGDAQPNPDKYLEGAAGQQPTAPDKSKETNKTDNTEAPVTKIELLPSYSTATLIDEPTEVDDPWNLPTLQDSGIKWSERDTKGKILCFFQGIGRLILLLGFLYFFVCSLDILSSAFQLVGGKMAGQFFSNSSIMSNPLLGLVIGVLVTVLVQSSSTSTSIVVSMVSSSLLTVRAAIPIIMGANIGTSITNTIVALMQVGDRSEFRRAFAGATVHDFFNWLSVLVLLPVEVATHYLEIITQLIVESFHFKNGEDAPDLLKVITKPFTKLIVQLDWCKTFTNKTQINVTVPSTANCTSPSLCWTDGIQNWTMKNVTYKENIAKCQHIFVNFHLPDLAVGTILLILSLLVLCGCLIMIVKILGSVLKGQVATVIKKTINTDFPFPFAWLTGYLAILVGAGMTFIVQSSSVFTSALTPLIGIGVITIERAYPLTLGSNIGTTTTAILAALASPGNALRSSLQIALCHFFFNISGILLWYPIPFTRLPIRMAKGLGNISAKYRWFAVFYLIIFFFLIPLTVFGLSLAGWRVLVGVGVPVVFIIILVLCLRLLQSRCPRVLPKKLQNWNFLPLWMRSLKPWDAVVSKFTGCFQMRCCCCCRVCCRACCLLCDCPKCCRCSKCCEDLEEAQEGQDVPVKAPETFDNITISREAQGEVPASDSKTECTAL
Sequence of Construct 3 (chimeric human NaPi2b, swap in NaPi2c in 304-321) (human) (O95436 other isoform, or with tags, fused parts or gaps mutant): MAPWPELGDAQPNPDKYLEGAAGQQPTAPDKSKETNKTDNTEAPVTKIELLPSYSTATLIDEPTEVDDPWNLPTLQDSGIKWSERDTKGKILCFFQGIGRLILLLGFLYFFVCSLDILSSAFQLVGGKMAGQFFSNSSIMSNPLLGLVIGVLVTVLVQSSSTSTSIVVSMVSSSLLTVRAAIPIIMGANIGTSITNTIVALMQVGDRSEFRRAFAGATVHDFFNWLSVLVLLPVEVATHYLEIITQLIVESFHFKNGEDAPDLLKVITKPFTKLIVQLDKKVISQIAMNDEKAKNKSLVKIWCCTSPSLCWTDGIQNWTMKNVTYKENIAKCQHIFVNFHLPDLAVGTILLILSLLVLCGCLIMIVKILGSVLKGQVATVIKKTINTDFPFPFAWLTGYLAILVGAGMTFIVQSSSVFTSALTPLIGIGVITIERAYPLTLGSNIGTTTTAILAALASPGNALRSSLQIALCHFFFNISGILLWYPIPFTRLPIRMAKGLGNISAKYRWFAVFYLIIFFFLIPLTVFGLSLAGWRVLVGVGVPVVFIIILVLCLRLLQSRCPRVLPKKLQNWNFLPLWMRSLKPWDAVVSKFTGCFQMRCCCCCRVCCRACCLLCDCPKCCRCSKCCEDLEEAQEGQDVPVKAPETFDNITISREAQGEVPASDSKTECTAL
Sequence of Construct 1 (chimeric human NaPi2b, swap in NaPi2c in 239-259) (human) (O95436 other isoform, or with tags, fused parts or gaps mutant): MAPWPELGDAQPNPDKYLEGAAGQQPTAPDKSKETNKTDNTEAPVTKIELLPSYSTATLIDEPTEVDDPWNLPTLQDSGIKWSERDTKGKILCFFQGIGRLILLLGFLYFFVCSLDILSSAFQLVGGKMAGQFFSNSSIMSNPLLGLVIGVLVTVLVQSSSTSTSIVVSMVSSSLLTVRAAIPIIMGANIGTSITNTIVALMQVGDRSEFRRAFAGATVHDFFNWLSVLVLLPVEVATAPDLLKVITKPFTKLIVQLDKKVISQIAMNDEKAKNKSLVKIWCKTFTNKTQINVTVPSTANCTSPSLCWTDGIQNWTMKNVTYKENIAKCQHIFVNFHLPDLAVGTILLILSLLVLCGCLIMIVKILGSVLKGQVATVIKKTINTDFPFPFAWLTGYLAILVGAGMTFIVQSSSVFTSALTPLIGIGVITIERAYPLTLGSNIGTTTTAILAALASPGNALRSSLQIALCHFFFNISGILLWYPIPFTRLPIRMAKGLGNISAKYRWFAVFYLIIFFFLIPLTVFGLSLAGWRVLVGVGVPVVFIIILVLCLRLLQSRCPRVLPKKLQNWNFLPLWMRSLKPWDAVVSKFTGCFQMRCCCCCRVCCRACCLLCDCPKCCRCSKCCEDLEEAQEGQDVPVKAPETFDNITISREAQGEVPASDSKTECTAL
Sequence of Construct 4 (chimeric human NaPi2b, swap in NaPi2c in 341-358) (human) (O95436 other isoform, or with tags, fused parts or gaps mutant): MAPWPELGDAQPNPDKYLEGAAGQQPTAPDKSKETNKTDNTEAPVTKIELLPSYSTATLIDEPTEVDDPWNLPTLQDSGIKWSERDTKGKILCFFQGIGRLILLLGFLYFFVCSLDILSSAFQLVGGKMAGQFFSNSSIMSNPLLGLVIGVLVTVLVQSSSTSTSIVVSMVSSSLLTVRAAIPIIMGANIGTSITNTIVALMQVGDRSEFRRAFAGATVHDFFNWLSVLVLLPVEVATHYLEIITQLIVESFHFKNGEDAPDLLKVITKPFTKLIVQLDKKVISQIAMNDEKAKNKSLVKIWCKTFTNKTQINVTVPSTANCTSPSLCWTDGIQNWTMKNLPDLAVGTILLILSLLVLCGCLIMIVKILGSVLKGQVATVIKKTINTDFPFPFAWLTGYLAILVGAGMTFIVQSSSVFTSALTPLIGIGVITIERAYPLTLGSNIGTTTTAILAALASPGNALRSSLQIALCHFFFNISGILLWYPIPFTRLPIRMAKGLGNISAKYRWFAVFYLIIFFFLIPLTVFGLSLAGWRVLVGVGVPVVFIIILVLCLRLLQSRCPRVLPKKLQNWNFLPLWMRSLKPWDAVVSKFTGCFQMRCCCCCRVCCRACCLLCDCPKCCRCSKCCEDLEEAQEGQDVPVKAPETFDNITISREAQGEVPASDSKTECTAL

Work on “reference anti-NaPi2a antibody (polyclonal rabbit anti-human SLC34A1; Atlas Biotechnologies Inc; Cat. No. HPA051255)” yielded a Background-Subtracted AF647 Mean Fluorescence Intensity [1] of 859 MFI, a Background-Subtracted AF647 Mean Fluorescence Intensity [2] of 222 MFI and a Background-Subtracted AF647 Mean Fluorescence Intensity [3] of 411 MFI. It also gave a Background-Subtracted AF647 Mean Fluorescence Intensity [4] of 250 MFI, a Background-Subtracted AF647 Mean Fluorescence Intensity [5] of 546 MFI and a Background-Subtracted AF647 Mean Fluorescence Intensity [6] of 283 MFI. The Background-Subtracted AF647 Mean Fluorescence Intensity [7] was 1 MFI, the Background-Subtracted AF647 Mean Fluorescence Intensity [8] was 97 MFI and the Background-Subtracted AF647 Mean Fluorescence Intensity [9] was 616 MFI. It also gave a Background-Subtracted AF647 Mean Fluorescence Intensity [10] of 230 MFI, a Background-Subtracted AF647 Mean Fluorescence Intensity [11] of 375 MFI and a Background-Subtracted AF647 Mean Fluorescence Intensity [12] of 511 MFI. It also gave a Background-Subtracted AF647 Mean Fluorescence Intensity [13] of 339 MFI, a Background-Subtracted AF647 Mean Fluorescence Intensity [14] of 291 MFI and a Background-Subtracted AF647 Mean Fluorescence Intensity [15] of 123 MFI. The Background-Subtracted AF647 Mean Fluorescence Intensity [16] was 107 MFI, the Background-Subtracted AF647 Mean Fluorescence Intensity [17] was 99 MFI and the Background-Subtracted AF647 Mean Fluorescence Intensity [18] was 70 MFI. The Background-Subtracted AF647 Mean Fluorescence Intensity [19] was 40 MFI, the Background-Subtracted AF647 Mean Fluorescence Intensity [20] was 146 MFI and the Background-Subtracted AF647 Mean Fluorescence Intensity [21] was 119 MFI. The Background-Subtracted AF647 Mean Fluorescence Intensity [22] was 666 MFI, the Background-Subtracted AF647 Mean Fluorescence Intensity [23] was 369 MFI and the Background-Subtracted AF647 Mean Fluorescence Intensity [24] was 596 MFI.
For v18992 (Fc wild-type MX-35) (antibody), the ADCC EC50 (nM) (25 PBMCs:1 IGROV-1, 4-hour incubation) [25] was 0.035 nM and the ADCP EC50 (nM) (2 Macs:1 IGROV-1, 2-hour incubation) [25] was 0.043 nM.
“Lifastuzumab (v18993, wild-type Fc) (antibody)” was tested, and the % ADCC at 0.0192 nM (25 PBMCs:1 IGROV-1, 4 h) [25] was 5.96%, the % ADCC at 0.48 nM (25 PBMCs:1 IGROV-1, 4 h) [25] was 14% and the % ADCC at 12 nM (25 PBMCs:1 IGROV-1, 4 h) [25] was 14.4%.
Work on “v16955 (Palivizumab, anti-RSV, negative control of Example 9) (antibody)” yielded a % Inhibition vs. irrelevant mAb [26] of 0%, a % Inhibition vs. irrelevant mAb [27] of 0% and a % Inhibition vs. irrelevant mAb [28] of 0%. It also gave a % Inhibition vs. irrelevant mAb [29] of 0%.

Reference: patent US20260232827A1, “ANTIBODY-DRUG CONJUGATES TARGETING NAPI2B AND METHODS OF USE” (Zymeworks BC Inc., priority 2023, published 2026)
